Results on 2 proteins are retold here after paper PMC4122463, “Application of Two Newly Identified and Characterized Feruloyl Esterases from Streptomyces sp. in the Enzymatic Production of Ferulic Acid from Agricultural Biomass” (PLoS ONE, 2014).

Common to all, as to type: biochemical, Streptomyces cinnamoneus
Substrate in data set [1]: COC(=O)/C=C/c1ccc(O)c(O)c1
The data set is described as follows: HPLC of released phenolic acid. The note with it: 50 mM Tris maleate, 40 °C, 30 min. The text has this:
(§1) HPLC of released phenolic acid on R43

Substrate in data set [2]: COC(=O)/C=C/c1ccc(O)cc1
The data set is described as follows: HPLC of released phenolic acid. The note with it: 50 mM Tris maleate, 40 °C, 30 min.
From the text: as §1

Substrate in data set [3]: COC(=O)/C=C/c1cc(OC)c(O)c(OC)c1
The data set is described as follows: HPLC of released phenolic acid. The following applies: 50 mM Tris maleate, 40 °C, 30 min.
From the text: as §1

Substrate in data set [4]: CCOC(=O)/C=C/c1ccc(O)c(OC)c1
The data set is described as follows: HPLC of released phenolic acid. The following applies: 50 mM Tris maleate, 40 °C, 30 min.
From the text: as §1

Substrate in data set [5]: COC(=O)/C=C/c1ccc(O)c(OC)c1
Kind of data set: HPLC of released phenolic acid. The note with it: 50 mM Tris maleate, 40 °C, 30 min.
From the text: as §1

Substrate in data set [6]: CCCC(=O)Oc1ccc([N+](=O)[O-])cc1
The data set is described as follows: purified protein. The following applies: general esterase assay.

Substrate in data set [7]: COC(=O)/C=C/c1ccc(O)c(O)c1
The data set is described as follows: HPLC of released phenolic acid. The following applies: 50 mM Tris maleate, 50 °C, 30 min. The text has this: (§2) HPLC of released phenolic acid on R18

Substrate in data set [8]: COC(=O)/C=C/c1ccc(O)cc1
Kind of data set: HPLC of released phenolic acid. The following applies: 50 mM Tris maleate, 50 °C, 30 min.
From the text: as §2

Substrate in data set [9]: COC(=O)/C=C/c1cc(OC)c(O)c(OC)c1
The data set is described as follows: HPLC of released phenolic acid. The following applies: 50 mM Tris maleate, 50 °C, 30 min.
From the text: as §2

Substrate in data set [10]: CCOC(=O)/C=C/c1ccc(O)c(OC)c1
The data set is described as follows: HPLC of released phenolic acid. The following applies: 50 mM Tris maleate, 50 °C, 30 min.
From the text: as §2

Substrate in data set [11]: COC(=O)/C=C/c1ccc(O)c(OC)c1
Kind of data set: HPLC of released phenolic acid. The following applies: 50 mM Tris maleate, 50 °C, 30 min.
From the text: as §2

B1: R43 (Streptomyces cinnamoneus) (protein)
chain: MEIRTAQGIVRGELTAGGLAVFRGVPYARPPVGNLRFAAPQPPLPWDGVRDALAFGPPPPQSGPARVPGDPAGTDWLTLNVWTPDPGGSGLPVLVWIPGGAYVSGAAGDPLYDAALLAGQGGLVVVTLNYRLGAEGFAHLPGVPDNRGLLDQLAALDWVRQNIARFGGNPDRVTLCGQSAGAGSIATLLAAPRAAGLFRRAITQSVPGLYATCALAADVTADLAARLGTTPTTAGLAAVSPQRLADAIDPLMEELPARIDRWGRLARSGVPFLPVVDGDVVPDVPWRSLRDGRASETDLLTGHTRDEFRPFLMLSGHPEKITDEDATAALRALAPAPDGERAYRAAHPDASPAALFELLYSDVLFRMPSLHLADAHSAGGGTAHLYELCLSAPALGGALGAAHGLDVSLLFGTYSAPAARLFYGEEPPPEDVLALGDDIRRSWASFAAHGDPGWPAYRVTDGRLTGLLDTGTGAGPYPEDASRRIWEGHGVEPFDLV
notes: full length, no signal peptide, secreted from Streptomyces expression host (pTONA vector); 498 aa; about 52 kDa; N-terminus at residue 1; monomer; powdered enzyme
For orientation: Km means the substrate concentration at which the rate is half of its maximum. The term Vmax denotes the rate approached at saturating substrate. Consider B1, for which the Km came to 2.61 ± 0.25 mM in [1]; 3.00 ± 0.26 mM in [2]; 0.54 ± 0.07 mM in data set [3]; 1.96 ± 0.14 mM in data set [4]; 4.41 ± 0.36 mM in [5]; 0.17 ± 0.05 mM in data set [6]. Moreover, the Vmax in data set [1] worked out at 0.0021 µmol/min/mg; in data set [2] it was 0.00817 µmol/min/mg; in data set [3], 0.00104 µmol/min/mg; in data set [4], 0.0153 µmol/min/mg; in [5] it was 0.042 µmol/min/mg; in data set [6] it was 0.00056 µmol/min/mg.

B2: R18 (Streptomyces cinnamoneus) (protein)
chain: ATAGQEVPAPATRIPLGTKTLHLVDASRQDPWKPSAGNRELMVTLWYPSLPSREPAAPYVSKPLSRAVLGNDVLAGVRTHAVAGARPAPVPRPLVVLSPGFGMSRITLTALGEDLASRGYAVAAVDHTYEAPVEFPGGRIEKCTLCDDSRMDPGAVVRNRAKDLRFVLDRLTGPGSELRVDARRIGVAGHSIGGASAVEVMREDRRVDAAINLDGNFFTEPPAEGLNKPVLLLGARRSGLPEPQENWERAWKQLTGWKRWLDVPAGGHMTFTDVPWIVDRFGMPGQIPPEQVEGQLGTVSAARATAVTRNYVAAFFDRHLRGRPSPLLDRPSSAHPEVTFMK
notes: secreted from Streptomyces expression host (pTONA vector), signal peptide removed; mature N-terminus at residue 42 of 383; about 38 kDa; monomer; powdered enzyme
As for B2, the Km in data set [7] worked out at 3.31 ± 0.31 mM; in data set [8] it was 4.31 ± 0.26 mM; in data set [9], 9.39 ± 1.43 mM; in data set [10], 4.28 ± 0.36 mM; in [11], 4.99 ± 1.72 mM. In addition, the maximum rate (Vmax) is 0.00752 µmol/min/mg in data set [7]; 0.0262 µmol/min/mg in [8]; 0.0367 µmol/min/mg in [9]; 0.0406 µmol/min/mg in data set [10]; 0.0523 µmol/min/mg in data set [11].
